The text below walks through data of the supplement of paper PMC9233669.

One data set deals with biotinyl-Phe-oxazolone. The data set is described as follows: self-aminoacylation, catalytic enhancement (BFO) (fold over background); higher = more active; k-Seq, kA / k0A0; sequences stand for … in GGGAAUGGAUCCACAUCUACGAAUUC…UUCACUGCAGACUUGACGAAGCUG
In short, it runs like this:
(§1)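 Mutagenized RNA pools with a 21-nt variable region (0.43 μM) were reacted with each biotinyl-aminoacyl-oxazolone at 2–1250 μM for 90 minutes at room temperature, in 50 μL HEPES/NaCl/KCl/MgCl2/CaCl2 buffer containing 5% acetonitrile at pH 6.9–7.0. RNA captured on streptavidin was quantified by triplicate qPCR and by Illumina sequencing. The fraction reacted for each sequence was fit to a pseudo-first-order model with bootstrapping, and catalytic enhancement is the median kA divided by the uncatalyzed rate, taken as the low-activity peak of a bimodal Gaussian fit.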

For another data set, the system named is biotinyl-Trp-oxazolone. The data set is described as follows: self-aminoacylation, catalytic enhancement (BWO) (fold over background); higher = more active; k-Seq, kA / k0A0; sequences stand for … in GGGAAUGGAUCCACAUCUACGAAUUC…UUCACUGCAGACUUGACGAAGCUG
In short, it runs like this: as §1

Variants at the floor of the assay were thinned out.

For the sequence “CAACUUCAAACAAUCCGUCUG [Fam1A.1 aminoacylation ribozyme variant]”, the figures for the self-aminoacylation in the data set on biotinyl-Phe-oxazolone and with biotinyl-Trp-oxazolone were 2.94 and 2.31, respectively.
In the same order, the values of “CCACUUCAAACAAUCGGUAUG [Fam1A.1 aminoacylation ribozyme variant]” are 21.3 and 12.7.
In the same order, the values of “CUGCUUCAAAUAAUCGGUCUG [Fam1A.1 aminoacylation ribozyme variant]” are 23.7 and 17.4.
In the same order, the values of “AAGUUUGCUAAUAGUCCCAAG [Fam3.1 aminoacylation ribozyme variant]” are 5.64 and 2.12.
Regarding “UUACUUCAAUCAAUCGGUCUG [Fam1A.1 aminoacylation ribozyme variant]”, the self-aminoacylation in the data set on biotinyl-Phe-oxazolone was 19.7; with biotinyl-Trp-oxazolone, 15.
In the same order, the values of “CUACUUCAAAAAAUCGGUAUG [Fam1A.1 aminoacylation ribozyme variant]” are 4.4 and 2.5.
In the same order, the values of “CGACUUCAAACAAUCGGACUG [Fam1A.1 aminoacylation ribozyme variant]” are 6.95 and 3.53.
Turning to “UUACUUCAAACAAUCGGUCAG [Fam1A.1 aminoacylation ribozyme variant]”, the self-aminoacylation in the data set on biotinyl-Phe-oxazolone worked out at 8.02; with biotinyl-Trp-oxazolone, 5.17.
In the same order, the values of “AAUUUUGCUGAUAGUCGCAAG [Fam3.1 aminoacylation ribozyme variant]” are 2.05 and 2.31.
In the same order, the values of “AAUGUUGCUAAUAGUCGCAAG [Fam3.1 aminoacylation ribozyme variant]” are 2.37 and 2.02.
As to “AAGUUUGCUAUUAGUCGCAGG [Fam3.1 aminoacylation ribozyme variant]”, the self-aminoacylation in the data set on biotinyl-Trp-oxazolone came out at 2.01.
As for “CUACUUCAAACAAUCAGUCGG [Fam1A.1 aminoacylation ribozyme variant]”, the figures for the self-aminoacylation in the data set with biotinyl-Phe-oxazolone and in the data set with biotinyl-Trp-oxazolone were 11.2 and 5.8, respectively.
Take “CCACAGUUCAAACAAUCGGUC [Fam1B.1 aminoacylation ribozyme variant]”: the self-aminoacylation amounted to 18.2 in the data set on biotinyl-Phe-oxazolone and 12 with biotinyl-Trp-oxazolone.
In the same order, the values of “AAGUUUGCUAAAAGUCGAAAG [Fam3.1 aminoacylation ribozyme variant]” are 4.76 and 2.17.
With “AAGUGUGCUAAUCGUCGCAAG [Fam3.1 aminoacylation ribozyme variant]”, the self-aminoacylation in the data set with biotinyl-Trp-oxazolone was found to be 2.44.
“CUGCUACAAACAAUCGGUCUG [Fam1A.1 aminoacylation ribozyme variant]”: the self-aminoacylation in the data set on biotinyl-Phe-oxazolone came out at 2.73; in the data set with biotinyl-Trp-oxazolone it was 2.27.
For “GCACACUCCAAGCAAUCGGUC [Fam1B.1 aminoacylation ribozyme variant]”, the self-aminoacylation in the data set with biotinyl-Phe-oxazolone was found to be 2.35; with biotinyl-Trp-oxazolone it was 2.53.
In the same order, the values of “AAGGUUGCUAAUAGUCGUAAG [Fam3.1 aminoacylation ribozyme variant]” are 13.7 and 4.23.
In the same order, the values of “CGAAUUCAAACAAUCGGUCUG [Fam1A.1 aminoacylation ribozyme variant]” are 4.97 and 3.38.
In the same order, the values of “CCACUCUUCAAGCAAUCGGUC [Fam1B.1 aminoacylation ribozyme variant]” are 32.1 and 15.1.
Consider “CUACUUCAACCAAUCGGUCGG [Fam1A.1 aminoacylation ribozyme variant]”, for which the self-aminoacylation in the data set on biotinyl-Phe-oxazolone came out at 14.3; with biotinyl-Trp-oxazolone it was 8.86.
In the same order, the values of “CUACUUCAAAUAAUCGGUCUG [Fam1A.1 aminoacylation ribozyme variant]” are 18.3 and 10.5.
As for “AUUACCCGGGUCAUCGAGUUA [Fam2.1 aminoacylation ribozyme variant]”, the self-aminoacylation in the data set on biotinyl-Trp-oxazolone was determined as 2.23.
Same read-out and setting: under “AAGAUUGCUAAUAGUCGCCAG [Fam3.1 aminoacylation ribozyme variant]” stands 2.02.
Still for that read-out and setting: under “AAGAUUGCUAAUUGUCGCAAG [Fam3.1 aminoacylation ribozyme variant]” stands 3.92; under “AAGUGUGCUAAUAGUCGCAGG [Fam3.1 aminoacylation ribozyme variant]”, 2.17.
Still for that read-out and setting: under “CCACCCUUCAAGCCAUCGGUC [Fam1B.1 aminoacylation ribozyme variant]” stands 2.57.
In the case of “AAGUUAGGUAAUAGUCGCAAG [Fam3.1 aminoacylation ribozyme variant]”, in the data set with biotinyl-Trp-oxazolone, the self-aminoacylation worked out at 2.11.
The same measure, in the same setting: for “CCACACUGCAAGCCAUCGGUC [Fam1B.1 aminoacylation ribozyme variant]” the value was 2.76; for “AAGUGUGCUAAUAGUCGCAAU [Fam3.1 aminoacylation ribozyme variant]”, 2.01.
Still for that read-out and setting: for “AUUACCCUGGUCAUUGAGUAA [Fam2.1 aminoacylation ribozyme variant]” the value was 2.02.
The same measure, in the same setting: for “CCACACUCCGAGCAAUCGGUC [Fam1B.1 aminoacylation ribozyme variant]” the value was 2.37; for “CGACACUUCAAGCAAUCGGUU [Fam1B.1 aminoacylation ribozyme variant]”, 2.37; for “GUACUACAAACAAUCGGUCUG [Fam1A.1 aminoacylation ribozyme variant]”, 2.14.
Turning to “CAGUUUGCUAAGAGUCGCAAG [Fam3.1 aminoacylation ribozyme variant]”, in the data set on biotinyl-Phe-oxazolone, the self-aminoacylation amounted to 2.85.
The same measure, in the same setting: under “AAGUUUGCUGAUAGUCGCAGG [Fam3.1 aminoacylation ribozyme variant]” stands 2.42.
On the same count and under the same terms, for “AAGUUUUCAAAUAGUCGCAAG [Fam3.1 aminoacylation ribozyme variant]” the value was 2.08.
Still for that read-out and setting: under “AUUCUCCUAGGUCAUCGGUUG [Fam2.2 aminoacylation ribozyme variant]” stands 6.63; under “AUUCACCUAGGUCAUCAUGUG [Fam2.2 aminoacylation ribozyme variant]”, 2.12.
On to “CUACUGCAAACACUCGGUCUG [Fam1A.1 aminoacylation ribozyme variant]”, for which, in the data set with biotinyl-Phe-oxazolone, the self-aminoacylation turned out to be 5.64.
On to “AAGUUAGCUAGUAGUCGCAAG [Fam3.1 aminoacylation ribozyme variant]”, for which the self-aminoacylation with biotinyl-Trp-oxazolone was found to be 2.01.
Turning to “AAGUUUCAUAAUAGUCGCAAG [Fam3.1 aminoacylation ribozyme variant]”, in the data set with biotinyl-Phe-oxazolone, the self-aminoacylation stood at 2.19.
Take “AUUCACCUCGGUCAUCGUGUG [Fam2.2 aminoacylation ribozyme variant]”: the self-aminoacylation in the data set on biotinyl-Phe-oxazolone turned out to be 3.14.
On the same count and under the same terms, under “AAGUUUCCUACUAGUCGCAAG [Fam3.1 aminoacylation ribozyme variant]” stands 2.54; under “AAGUUUGCUAAUAGUUGCGAG [Fam3.1 aminoacylation ribozyme variant]”, 2.61; under “AUGCACCUAGGUCAUCGGGUC [Fam2.2 aminoacylation ribozyme variant]”, 7.15.
Still for that read-out and setting: under “UUACUUCAAACAUUCGGUCUG [Fam1A.1 aminoacylation ribozyme variant]” stands 2.03.
